According to a protein production outcome set (Wang et al. 2014):

Experiment: label from the status in PepcDB records

Sequence	protein production
MESSGNPESTTFFYYDLQSQPCENQAWVFATLATTVLYCLVFLLSLVGNSLVLWVLVKYESLESLTNIFILNLCLSDLVFACLLPVWISPYHWGWVLGDFLCKLLNMIFSISLYSSIFFLTIMTIHRYLSVVSPLSTLRVPTLRCRVLVTMAVWVASILSSILDTIFHKVLSSGCDYSELTWYLTSVYQHNLFFLLSLGIILFCYVEILRTLFRSRSKRRHCTVKLIFAIVVAYFLSWGPYNFTLFLQTLFRTQIIRSCEAKQQLEYALLICRNLAFSHCCFNPVLYVFVGVKFRTHLKHVLRQFWFCRLQAPSPASIPHSPGAFAYEGASFY	failed
MGHHHHHHSHMNLERLRKRVRQYLDQQQYQSALFWADKVASLSREEPQDIYWLAQCLYLTAQYHRAAHALRSRKLDKLYEACRYLAARCHYAAKEHQQALDVLDMEEPINKRLFEKYLKDESGFKDPSSDW	failed
MVEASFGYEDFIVRMATGLLVGALIGIERERAQLVGKSEKSGSIPGFRSMGFMGLYGSATGYVSSYTASQYGVVFAALIAGLGAATITLLTLLFAYTRMIRLRAMGFTTYVVILLTFVAGLMSGMGLILEGVAVGVIGGLLLASKYPVVRMTRSVSYSELIALMEVAALILVLGPAVYYAGGYIPFIDVFQVYIFFTAIVAVSFTSYIASRIWGVRGFVTSIILGSIVNSEAVVASIASRRDIDRGVVFQAVVAALSVMQLRIAGLGLLALLVGGGFPQGEVVLHFRDNILPWLILLALMTIASIVAWASTLALEKVENKGVIPGTPLQWGVAVRGAVAFLLLTLLFDAASRALSGYTGNIAFLTLSIIGGFISANATLLSLAGLLTRLGADTFTVGILGIALGATFNKILYTRAVGAPPETVKEITKATALMSLLPVFFLILFWLLLQTPTG	failed
MKSKNSLLLTTVFTLLVTITTSNVFAAETATVKADENSTDKKNVSKKSYRVSKKVPAMRNRVYSQLSRAQQLADDGDKIEGFEVLAEVEDRLNSLNSYERAMLFNFYGFMYYANEDITLAVDSFNKVIAETAIPDSLIISTLYSLAQLSMQQQHYKEALDYLTQWREINAKELTGTQEMLFAQVYYQDKDFVNSLKHSEMAISLVEAKNKHPKENWLTLQRATYYELKQPKQVTKVMEKLIRLYDKPQYWLQLSSMYGEIGEEDKQMAVMEAAYQAGYITKASDILTLSQLYLFHGAPFKSAAVLEDSIAQGSIFADEDNLSMLARAYLTAKEYDKATKVLVRVSDIAQSGKHDALLAQTYLNTEQWQAAINSSTLALARYAKHKENKGNQVNDIANMHLILGMANFNLKKFERSLTSFAKAAQFTSTKKTALQWGKYVEREQQHHKVQLAMLN	failed
GSEEEEIPFRCFICRQAFQNPVVTKCRHYFCESCALEHFRATPRCYICDQPTGGIFNPAKELMAKLQK	not failed
MLEKNKPENHATDKHGLLSAPIPETLRKMTVPMTMGMIAILMFNLVDTFFISLLGTHALAAISYTFPVTFAVNCITMGIGMGLSTNIGRLLGQGHAPQAARFTTHGLLLAVLLVAIASSIGFATIAPLFRFLGATDDLIPLIEQYMQVWYLTIPLLVIPMAGNSAIRATGDTKTPAKIMMLAGLINGMLDPLLIFGYGPFPELGIQGAAIASAFSWLGALCGSFYVLVKREKLLAQPQWASLKQDWQQTLKIGTPAALSNAMNPLSGAILMMLLSSHGTAAVAAYGAAQRIESILILVLMSLTSALTPFMAQNLGAKNPQRAFSGLFLSMRFAVVFQGFIFLMMVPLSIPLAALFSQEETVKNLLWHYLLVVPFSYGFQGIVMMLVSGLNAMHKPLRAFQWSFMRLFVFTLPAAWVGSQVYSIEGLFIGIALGNTLGGLLGYMFALRERKLTLIEQNSAS	failed
MQAGSMSAPKQLVIIGAGEFAQIACEYFQHDSHYTVVAFSVERDFLLQHTLAELPVVAYEELEQRYPPEQYEVFVAIPATRLNRLRTRFFQDVVQRGYRCATYVSSRAFVWHNAQIGANCFIFEGNVIQPFTRIGDNCVLWSGNHIGHRTAVRDHVFIASHAVISGYCEIGQGSFIGVNATLSDKVHIAANNIIGAGALVTRHTEAERVYVGSPARAVAGRSSFDVEL	failed
MKVIIIGGETTAYYLARSMLSRKYGVVIINKDRELCEEFAKKLKATIIHGDGSHKEILRDAEVSKNDVVVILTPRDEVNLFIAQLVMKDFGVKRVVSLVNDPGNMEIFKKMGITTVLNLTTLITNTVEALIFPDEFSSIIPLEQGIE	failed
MKKILVIRNDKIGDFMVCFPAFAMLKQSMPNAEITALVPSYTASLAELCPSIDNVIIDTPNKKDKTEFNRVLQAVKNAQFDAVICFVSDWYNAKLTWKSGIKHRLAPATKVFQFLYNQRLEHHHHHH	failed
MLSIKANHFMPIVRLKENEPFEAALRRFKRTIEKTGLLTELRSREFYEKPTAERKRKHAAAVKRHYKRIRSQQLPPRLYLEHHHHHH	failed
MRVALAGRPQEALDVALPAAELPEHLRWRLRSWQADAQEALGQSAEATLLYAEAAHLAAGLNRAVMLQEQAALLLQQGDFEEARQVLERARTLYTGPRPGTDPNDEGLNLATWHYLMAQVRLNLGQPEAAQDDIREAARLEGLSGDPSYGVALVQGQVLSHLGQLEEALEAFGQALARATDPDRPYANHELGVALLDLDRPLEAREKLEEVLLVPDYPFHPEVLADIAECDYRLGRLPEAQLAAEQALNQGAVVPASVVLGNVALDYYHLDDALDHYERVVREAVHGSRDWVLGHQMAADVMAQQGFPDPAAAYAHAQQALEHTPESDDWYVTLQDHLSRAQALMGSAGGRTLN	failed
MQVEREENRKEVYEMKKETTGSKKVENGMEQEILNGQQPHWEKVFSNTCSRFGDEPSYPARKAAAIFEKEGKKKILELGGGQGRDTCFFASRGFSVHSLDYTESGTKAMKEKAEESGFGKYVTALRHDARNPLPFEAETFDACYSHMLYCMALTTDELEFLCKEIKRVLKPGGINIYTARHTGDAHYGTGTHRGEDMYEIAGGFIVHFFSREKVENLAKEYGSFELEEFEEGELPRKLYMVTMRK	failed
MQGGSSGIGYGLKYQARCISDVKADRDHTSFLTGTLSLKEENEVHLLRLSSGGSELLCEGLFSHPNEIWDLASSPFDQRIFSTVFSTGDSYGAAIWQIPEPYGQSNSSTLECVASLDAHVGKINCVLWCPSGNSDKLISMDEQNLVFWSLDSSKKSAEVLSKESAGMRHSLSGGAWNPHDVNSVAATSESSIQFWDLRTMKKNNSIERAHVRNVDYNLKREHILVSADDESGIHLWDLRKTKFPVQELPGHTHWTWAVRCNPEYEELILSVGTDSAVNLWFASASSEHKTSESPVEASRQRVNPLLNSYTDYEDSVYGLAWSSREPWIFASLSYDGRVVIESVKPFLPRR	not failed
MNEEKQQELLISVIITNYNYDQFIDQAIESVLSQTYYNFELIIVDDGSTDNSRDVISSYTDSRIKALVKNNGGQASAFNAGFEQANGEIICFLDSDDWWKPEKLETIIRWHYFINKDYAIFQHVLDVWYEGKTRPYKHILPSGDCFAEMKKVKKLDFFVPTSGLSFPKKILDRIFPIPIKFIIAADSYIMRTACVFNMVYSIPKSLGFYRQHDNTVFLNPDFDLQPFLKEILIPELNQFYQKYRINYQIEISDYNFNERKKNKKQKIFEYLKKVFFLEHHHHHH	failed
MFRPQDDFTYLMPVHFGGGKFDPETLVTQKATALSLSFETERDLLENYIPEGFELLAPEVQVAFNKFTEINWLHGGQYNLINVAAPVRFHGKKDELDGAYTLVVWENKTAPILGGREQTGIPKIYADIEDLHIVRPHFATTVSYEGNTFLNMDFEATGSITGRDLDALKSQFLTMNTLGWRYIPKVGAPGAELSQFVLYPQGMEVETAEVGKGSLKWTELTPMQSPAQYYIVNSLASLPIKRVTQAVLVEGRAILRAMGARVIE	not failed
MLGFKDIPLTKKVIHIINDIERPFMIRWSNSHDVQQIHDWLQEEEALEVHGNFLCNWNLTRQCHEEGRLLVLIDEIKGIPVAYQWGQLLSSGILQVRNGWRGNGLGRLVVEHCVELALQQDEMVLQVECKPSSSIPFWEAMGFTIVEGEFGKNAKGFRVLSKNLALPPGGRPILATISSFPEERNWQDNVPAIASYHLNAIVADDGKVYLAERASFPKCFRRMSRDPVIEIIVEGKLVYRDKAKYQGAQDHGVKWCRNGFYIDVVTI	failed
MDALIMAGGKGTRMGGVEKPLIKLCGRCLIDYVVSPLLKSKVNNIFIATSPNTPKTKEYINSAYKDYKNIVVIDTSGKGYIEDLNECIGYFSEPFLVVSSDLINLKSKIINSIVDYFYCIKAKTPDVEALAVMIPKEKYPNPSIDFNGLVPAGINVVSPKHGYQKEEIMVIDELIFNINTKDDLKLAEMLLKKDGL	failed
LQPNMRTRVCTVINNNIAHEWTLARIASELLMSPSLLKKKLREEETSYSQLLTECRMQRALQLIVIHGFSIKRVAVSCGYHSVSYFIYVFRNYYGMTPTEYQERSAQRLSNRDSAAS	not failed
DRRVRRNMEIAEIVGLDAHTKMLRTSTVFQWDSVKDEHAMVGTSKALEEIRRQRGWSVRELNEELERRRRVLEFMLSNGIRMFKDVSAVIHTYQVNPERAMKRLGVEEL	failed
NSNTLSQIQLNEQSCLSQVVNNLYRLHNSEFVFRNVFSVFDEFRQYFSLLENKSAFYQADSRMDKLSAVFWQFEEINKEVILRPCHNDLVPENMLLQDDRLFFIDWEYSGLNDPLFDIATIIEEAHLSKEAADFLLETYCNQTNKYHKTEFQIAHKRLKIHRFCQNVLWFLWTKVKEEHGENFGDYALKRLDAAFKLLEELP	failed
VGVRRENATATGVLLIPDGPDCPRPYPILTWGPSTSAQRHVGQDKTIVNANGNTPLVTRLASQGYVLVSPDYLGLGDSDYPFHPYLHLFTEVSSTIDAVRAARDVLWHSNTPLSNKVMLSGFSQGGQAALAVQREIEAHQSLSQEFSLVASAPISGPYALSQTILDSWSGRNK	failed
MKIGVIQASTRTDLNQLLFEAVKQAAGNQHEIVNFGVFPQETENYSYVEVAIMISLLIETGAIDFMVSGCSSGQGMMMACNSLPGLQAGFIQTPQDAFLFGRINNGNVASLSLGLNFGWAGELNLQYALNELFHGEFGIGYPPEVAERKREEAQLLLTLNDITKKSFLEIIDQLDKALLFKILKRKDLTAYLFDYGSNSLLLERLQFFRN	failed
MASSTLFKLNSQTFKALNPSPPSLSPPNSRIFHLHFSKSLSQQHSKLNHKSTTTRLFAPLCSSLPSPSSSSPPLSKEEAINQAKTCLLSCLIKPLNNPKLASPKLRKLKQPRFRLEIPILDDDSPSSLSQLAFSIFHDLPISRRGSNVKLLFLWPNPSFIDPAVKAFRSDSIHHIAMSPVSDSLKTALRSADVAIFMAPEKSQLEDVKTASEAFSTKPVVMINPRWLFEEEKSFGDGFIGSFEVIYAFTGLEVRGVFSKRKGVIFKCVRDGVVSGERWNVLVEEEEGNGTLKVVSQFNSRPSIEEVELVLYNLMAMNSPITKSAKFLSDLVSNITGKK	failed
DQPVINFGIISTESSQNLKSIWEPFLKDMSQQTGYQVKAFFAPDYAGIIQGMRFDKVDIAWYGNKAAMEAVDRAHGEIFAQTVAASGAPGYWSLLIANKDSKIDSLEDMLANAKSLTFGNGDPNSTSGYLVPGYYVFAKNNVDPVKAFKRTLNSSHEVNALAVANKQVDVATFNTEGMERLELTQPEKARQLKVIWKSPLIPGDPLVWRNNLSDEQKNKLRDFFFKYGANAEQKKVLADLQWSKFQPSDDDQLLPIRQLELFKQRTDVANNANLGAEEKAAKLKALDEELAKLEKRMAEREQKTAANAG	not failed
